Measurements from patent US20150203577A1 (Chugai, published 2015).

T1: mouse FcγRII extracellular domain, C-terminally His-tagged (mouse, UniProt P08101 30-210)
T1 construct: the whole entry is named; also called mFcγRII; mFcgRII
T1 sequence: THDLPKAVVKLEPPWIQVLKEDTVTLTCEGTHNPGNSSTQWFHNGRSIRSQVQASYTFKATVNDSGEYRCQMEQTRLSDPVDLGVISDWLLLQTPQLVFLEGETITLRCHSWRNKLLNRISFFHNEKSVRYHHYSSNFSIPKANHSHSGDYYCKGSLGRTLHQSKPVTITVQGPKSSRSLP

T2: mouse FcγRIII extracellular domain, C-terminally His-tagged (mouse, UniProt P08508 31-215)
T2 construct: the whole entry is named; also called mFcγRIII; mFcgRIII
T2 chain: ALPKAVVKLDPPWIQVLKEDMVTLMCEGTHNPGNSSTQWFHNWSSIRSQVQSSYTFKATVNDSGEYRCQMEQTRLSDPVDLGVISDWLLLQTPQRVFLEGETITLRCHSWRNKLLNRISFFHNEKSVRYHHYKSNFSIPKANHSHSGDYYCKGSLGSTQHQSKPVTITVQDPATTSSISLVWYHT


How the values were obtained:
[1] = molecular target: T1, mouse FcγRII extracellular domain, …; experiment: SPR Biacore T200, KD ratio
Source text: (§1) The antibody H chain variable region used was the variable region H237 (SEQ ID NO: 1) of the H chain VH3-IgG1 of the anti-IL-6 receptor antibody Fv4-IgG1 described in WO2009/125825. The antibody L chain commonly used was the L chain MRAL-k0 (SEQ ID NO: 2) of the anti-IL-6 receptor antibody tocilizumab. H237-MB476/MRAL-k0 and H237-MB515/MRAL-k0 were used as templates to introduce new alterations. These variants were expressed and purified by the method of Reference Example 1 and evaluated for their binding to mFcγRII and mFcγRIII by the method of Reference Example 2 using Biacore T200.
(§2) Each altered antibody was analyzed for its interaction with each Fcγ receptor prepared above using Biacore T100 (GE Healthcare Japan Corp.), Biacore T200 (GE Healthcare Japan Corp.), Biacore A100, or Biacore 4000. The running buffer used was HBS-EP+ (GE Healthcare Japan Corp.). The assay temperature was set to 25° C. The sensor chips used were chips prepared by immobilizing Protein L (ACTIGEN or BioVision) onto Series S Sensor Chip CM5 (GE Healthcare Japan Corp.) or Series S Sensor Chip CM4 (GE Healthcare Japan Corp.) by the amine coupling method.
(§3) In order to calculate the KD value of each altered antibody for FcγR, kinetic analysis was conducted according to the following method: first, the antibody of interest was captured onto any of these chips and allowed to interact with mFcγR diluted with a running buffer. For the obtained sensorgram, the assay results were globally fit into the 1:1 Langmuir binding model using Biacore Evaluation Software to calculate an association rate constant ka (L/mol/s) and a dissociation rate constant kd (1/s). From these values, the dissociation constant KD (mol/L) was calculated.

[2] = molecular target: T2, mouse FcγRIII extracellular domain, …; experiment: SPR Biacore T200, KD ratio
Source text: as §1, §2, §3

[3] = molecular target: T1, mouse FcγRII extracellular domain, …; experiment: SPR Biacore T200, KD ratio, template MB515
Source text: as §1, §2, §3

[4] = molecular target: T2, mouse FcγRIII extracellular domain, …; experiment: SPR Biacore T200, KD ratio, template MB515
Source text: as §1, §2, §3

relative mFcγRII-binding activity (mIgG1 = 1) [1] [fold]	relative mFcγRIII-binding activity (mIgG1 = 1) [2] [fold]	relative mFcγRII-binding activity (template = 1) [3] [fold]	relative mFcγRIII-binding activity (template = 1) [4] [fold]	relative mFcγRII-binding activity (H237-mIgG1/MRAL-k0 = 1) [1] [fold]	relative mFcγRII-binding activity (template H237-MB515/MRAL-k0 = 1) [1] [fold]	Binder
163	2.7	1.19	2.02	–	–	H237-MB545/MRAL-k0 (antibody, mouse IgG1, kappa, copies: 2 + 2) heavy: QVQLQESGPGLVKPSETLSLTCAVSGHSISHDHAWSWVRQPPGEGLEWIGFISYSGITNYNPSLQGRVTISRDNSKNTLYLQMNSLRAEDTAVYYCARSLARTTAMDYWGEGTLVTVSSAKTTPPSVYPLAPGSAAQTNSMVTLGCLVKGYFPEPVTVTWNSGSLSSGVHTFPAVLQSDLYTLSSSVTVPSSTWPSETVTCNVAHPASSTKVDKKIVPRDCGCKPCICEPNEVEMVFIFPPKPKDVLTITLTPKVTCVVVDISKDDPEVQFSWFVDDVEVHTAQTQPREEQFNLTFRSVSELPIMHQDWLNGKEFKCRVDSDAFPAPIEKTISKTKGRPKAPQVYTIPPPKEQMAKDKVSLTCMITDFFPEDITVEWQWNGQPAENYKNTQPIMDTDGSYFVYSKLNVQKSNWEAGNTFTCSVLHEGLHNHHTEKSLSHSPGK light: not shown
195	2.2	1.42	1.69	–	≥ 1.4	H237-MB543/MRAL-k0 (antibody, mouse IgG1, kappa, copies: 2 + 2) heavy: QVQLQESGPGLVKPSETLSLTCAVSGHSISHDHAWSWVRQPPGEGLEWIGFISYSGITNYNPSLQGRVTISRDNSKNTLYLQMNSLRAEDTAVYYCARSLARTTAMDYWGEGTLVTVSSAKTTPPSVYPLAPGSAAQTNSMVTLGCLVKGYFPEPVTVTWNSGSLSSGVHTFPAVLQSDLYTLSSSVTVPSSTWPSETVTCNVAHPASSTKVDKKIVPRDCGCKPCICEPNEVEMVFIFPPKPKDVLTITLTPKVTCVVVDISKDDPEVQFSWFVDDVEVHTAQTQPREEQFNSTFRSVSELPIMHQDWLNGKEFKCRVDSAAFPAPIERTISKTKGRPKAPQVYTIPPPKEQMAKDKVSLTCMITDFFPEDITVEWQWNGQPAENYKNTQPIMDTDGSYFVYSKLNVQKSNWEAGNTFTCSVLHEGLHNHHTEKSLSHSPGK light: not shown
276	3.2	2.01	2.45	–	≥ 1.4	H237-MB544/MRAL-k0 (antibody, mouse IgG1, kappa, copies: 2 + 2) heavy: QVQLQESGPGLVKPSETLSLTCAVSGHSISHDHAWSWVRQPPGEGLEWIGFISYSGITNYNPSLQGRVTISRDNSKNTLYLQMNSLRAEDTAVYYCARSLARTTAMDYWGEGTLVTVSSAKTTPPSVYPLAPGSAAQTNSMVTLGCLVKGYFPEPVTVTWNSGSLSSGVHTFPAVLQSDLYTLSSSVTVPSSTWPSETVTCNVAHPASSTKVDKKIVPRDCGCKPCICEPNEVEMVFIFPPKPKDVLTITLTPKVTCVVVDISKDDPEVQFSWFVDDVEVHTAQTQPREEQFNSTFRSVSELPIMHQDWLNGKEFKCRVNSDAFPAPIERTISKTKGRPKAPQVYTIPPPKEQMAKDKVSLTCMITDFFPEDITVEWQWNGQPAENYKNTQPIMDTDGSYFVYSKLNVQKSNWEAGNTFTCSVLHEGLHNHHTEKSLSHSPGK light: not shown

Second part, the binder before the results:

Binder	relative mFcγRII-binding activity (mIgG1 = 1) [1] [fold]	relative mFcγRIII-binding activity (mIgG1 = 1) [2] [fold]	relative mFcγRII-binding activity (template = 1) [3] [fold]	relative mFcγRIII-binding activity (template = 1) [4] [fold]	relative mFcγRII-binding activity (H237-mIgG1/MRAL-k0 = 1) [1] [fold]	relative mFcγRII-binding activity (template H237-MB515/MRAL-k0 = 1) [1] [fold]
H237-MB538/MRAL-k0 (antibody, mouse IgG1, kappa, copies: 2 + 2) heavy: QVQLQESGPGLVKPSETLSLTCAVSGHSISHDHAWSWVRQPPGEGLEWIGFISYSGITNYNPSLQGRVTISRDNSKNTLYLQMNSLRAEDTAVYYCARSLARTTAMDYWGEGTLVTVSSAKTTPPSVYPLAPGSAAQTNSMVTLGCLVKGYFPEPVTVTWNSGSLSSGVHTFPAVLQSDLYTLSSSVTVPSSTWPSETVTCNVAHPASSTKVDKKIVPRDCGCKPCICEPNEVEMVFIFPPKPKDVLTITLTPKVTCVVVDISKDDPEVQFSWFVDDVEVHTAQTQPREEQFNLTFRSVSELPIMHQDWLNGKEFKCRVNSAAFPAPIEKTISKTKGRPKAPQVYTIPPPKEQMAKDKVSLTCMITDFFPEDITVEWQWNGQPAENYKNTQPIMDTDGSYFVYSKLNVQKSNWEAGNTFTCSVLHEGLHNHHTEKSLSHSPGK light: not shown	86.2	1.7	0.63	1.3	–	–
H237-MB539/MRAL-k0 (antibody, mouse IgG1, kappa, copies: 2 + 2) heavy: QVQLQESGPGLVKPSETLSLTCAVSGHSISHDHAWSWVRQPPGEGLEWIGFISYSGITNYNPSLQGRVTISRDNSKNTLYLQMNSLRAEDTAVYYCARSLARTTAMDYWGEGTLVTVSSAKTTPPSVYPLAPGSAAQTNSMVTLGCLVKGYFPEPVTVTWNSGSLSSGVHTFPAVLQSDLYTLSSSVTVPSSTWPSETVTCNVAHPASSTKVDKKIVPRDCGCKPCICEPNEVEMVFIFPPKPKDVLTITLTPKVTCVVVDISKDDPEVQFSWFVDDVEVHTAQTQPREEQFNLTFRSVSELPIMHQDWLNGKEFKCRVDSAAFPAPIEKTISKTKGRPKAPQVYTIPPPKEQMAKDKVSLTCMITDFFPEDITVEWQWNGQPAENYKNTQPIMDTDGSYFVYSKLNVQKSNWEAGNTFTCSVLHEGLHNHHTEKSLSHSPGK light: not shown	105	1.9	0.77	1.45	–	–
H237-MB542/MRAL-k0 (antibody, mouse IgG1, kappa, copies: 2 + 2) heavy: QVQLQESGPGLVKPSETLSLTCAVSGHSISHDHAWSWVRQPPGEGLEWIGFISYSGITNYNPSLQGRVTISRDNSKNTLYLQMNSLRAEDTAVYYCARSLARTTAMDYWGEGTLVTVSSAKTTPPSVYPLAPGSAAQTNSMVTLGCLVKGYFPEPVTVTWNSGSLSSGVHTFPAVLQSDLYTLSSSVTVPSSTWPSETVTCNVAHPASSTKVDKKIVPRDCGCKPCICEPNEVEMVFIFPPKPKDVLTITLTPKVTCVVVDISKDDPEVQFSWFVDDVEVHTAQTQPREEQFNSTFRSVSELPIMHQDWLNGKEFKCRVDSDAFPAPIEKTISKTKGRPKAPQVYTIPPPKEQMAKDKVSLTCMITDFFPEDITVEWQWNGQPAENYKNTQPIMDTDGSYFVYSKLNVQKSNWEAGNTFTCSVLHEGLHNHHTEKSLSHSPGK light: not shown	384	3.4	2.8	2.57	≥ 350	≥ 1.4
H237-MB541/MRAL-k0 (antibody, mouse IgG1, kappa, copies: 2 + 2) heavy: QVQLQESGPGLVKPSETLSLTCAVSGHSISHDHAWSWVRQPPGEGLEWIGFISYSGITNYNPSLQGRVTISRDNSKNTLYLQMNSLRAEDTAVYYCARSLARTTAMDYWGEGTLVTVSSAKTTPPSVYPLAPGSAAQTNSMVTLGCLVKGYFPEPVTVTWNSGSLSSGVHTFPAVLQSDLYTLSSSVTVPSSTWPSETVTCNVAHPASSTKVDKKIVPRDCGCKPCICEPNEVEMVFIFPPKPKDVLTITLTPKVTCVVVDISKDDPEVQFSWFVDDVEVHTAQTQPREEQFNLTFRSVSELPIMHQDWLNGKEFKCRVNSAAFPAPIERTISKTKGRPKAPQVYTIPPPKEQMAKDKVSLTCMITDFFPEDITVEWQWNGQPAENYKNTQPIMDTDGSYFVYSKLNVQKSNWEAGNTFTCSVLHEGLHNHHTEKSLSHSPGK light: not shown	103	3.3	0.75	2.48	–	–
H237-MB540/MRAL-k0 (antibody, mouse IgG1, kappa, copies: 2 + 2) heavy: QVQLQESGPGLVKPSETLSLTCAVSGHSISHDHAWSWVRQPPGEGLEWIGFISYSGITNYNPSLQGRVTISRDNSKNTLYLQMNSLRAEDTAVYYCARSLARTTAMDYWGEGTLVTVSSAKTTPPSVYPLAPGSAAQTNSMVTLGCLVKGYFPEPVTVTWNSGSLSSGVHTFPAVLQSDLYTLSSSVTVPSSTWPSETVTCNVAHPASSTKVDKKIVPRDCGCKPCICEPNEVEMVFIFPPKPKDVLTITLTPKVTCVVVDISKDDPEVQFSWFVDDVEVHTAQTQPREEQFNLTFRSVSELPIMHQDWLNGKEFKCRVNSDAFPAPIEKTISKTKGRPKAPQVYTIPPPKEQMAKDKVSLTCMITDFFPEDITVEWQWNGQPAENYKNTQPIMDTDGSYFVYSKLNVQKSNWEAGNTFTCSVLHEGLHNHHTEKSLSHSPGK light: not shown	149	2.8	1.09	2.15	–	–
